This is an account of results in article PMC8322138, “BRCA2 binding through a cryptic repeated motif to HSF2BP oligomers does not impact meiotic recombination” (Nature Communications, 2021).

In one data set the test system is GFP-HSF2BP. Nature of the data set: Co-immunoprecipitation of Flag-BRCA2 variants/fragments with GFP-HSF2BP WT. The data set is classed as cell-based, human. Conditions: transient HEK293T, anti-GFP beads, immunoblot. The text has this: (§1) Expression constructs for producing point mutation and truncation variants of HS2BP and BRCA2 in human cells were engineered as described before[16] in the PiggyBac vectors by Gibson assembly. For transient expression into HEK293T cells plasmid DNA was transfected using calcium precipitation method or PEI transfection. For stable integration into HeLa cells, PiggyBac expression vectors were co-lipofected together with PiggyBac transposase plasmid (hyPBase[45]) with Lipofectamine 3000 (Thermo Fisher).
(§2) Cells were washed twice in ice-cold PBS and lysed in situ in NETT buffer (100 mM NaCl, 50 mM Tris pH 7.5, 5 mM EDTA pH 8.0, 0.5% Triton-X100) supplemented immediately before use with protease inhibitor cocktail (Roche) and 0.4 mg/ml Pefabloc (Roche) (NETT++); 450 µl NETT++ buffer was used per 145 mm dish ES cells, 1 ml for HeLa and HEK293T. After 5–10 min, cells were scraped off and collected in 1.5 ml microcentrifuge tubes; lysis was continued for additional 20–30 min on ice, then mixtures were centrifuged (15 min, 4 °C, 14,000 × g) and the supernatant (input) was added to washed anti-GFP beads (Chromotek). Beads and lysates were incubated 2–4 h at 4 °C while rotating, washed three times in NETT++ buffer and bound proteins were eluted by boiling in 2x Sample buffer. Immunoblotting was performed following standard procedures with the following antibodies: anti-GFP mAb (Roche, #11814460001), anti-GFP pAb (Abcam #ab290 and Invitrogen #A11122), anti-RAD51[46], anti-BRCA2 mAb Ab1 OP-95 (Millipore #OP95), anti-BRCA2 (Abcam #27976), anti-Flag (M2 antibody, Sigma, F3165 and F1804). For quantitative immunoblotting fluorescently labeled secondary antibodies were used: anti-mouse CF680 (Sigma #SAB460199), anti-rabbit CF770 (Sigma #SAB460215); membranes were scanned using Odyssey CLx imaging system (LI-COR).
(In western blotting, separated proteins are transferred to a membrane and probed.)

The target of data set [1] is T1, armadillo domain of HSF2BP, from aa 122 to aa 334 (ARM) (human, UniProt O75031 122-334).
T1 construct: Free ARM is a dimer (SEC-MALS); four ARM with two F15X in the complex; A selenomethionine-labelled form was used for the deposited crystal structure; also called HSF2BP ARM; H3 (recombinant); source: E. coli BL21 DE3 Rosetta2, purified (HisTrap, TEV cleavage, SEC)
T1 sequence (looked up): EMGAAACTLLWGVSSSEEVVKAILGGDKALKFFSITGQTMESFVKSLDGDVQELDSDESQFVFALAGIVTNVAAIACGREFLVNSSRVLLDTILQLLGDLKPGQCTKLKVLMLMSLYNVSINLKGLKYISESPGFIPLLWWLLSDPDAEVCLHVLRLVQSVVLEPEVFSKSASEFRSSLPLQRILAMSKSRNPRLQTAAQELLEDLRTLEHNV
Nature of the data set: ITC; HSF2BP or ARM in the cell at 10-20 uM, BRCA2 fragment in the syringe at 40-100 uM; 293 K; 25 mM Tris pH 7.5, 250 mM NaCl, 5 mM beta-mercaptoethanol; two replicates. Conditions: both partners purified. On the technique in general: Isothermal titration calorimetry measures the heat released or taken up as one component is titrated into another.

Data set [2] concerns the target T2, Human full-length HSF2BP WT (human, UniProt O75031 1-334).
T2 construct: HSF2BP, human, full length, wild type; pETM11 (6xHis-TEV) vector; purified as in Brandsma et al., Cell Rep 2019; also called HSF2BP FL; HFS2BP; source: E. coli BL21 DE3 Rosetta2, purified (HisTrap, TEV cleavage, SEC)
T2 sequence (looked up): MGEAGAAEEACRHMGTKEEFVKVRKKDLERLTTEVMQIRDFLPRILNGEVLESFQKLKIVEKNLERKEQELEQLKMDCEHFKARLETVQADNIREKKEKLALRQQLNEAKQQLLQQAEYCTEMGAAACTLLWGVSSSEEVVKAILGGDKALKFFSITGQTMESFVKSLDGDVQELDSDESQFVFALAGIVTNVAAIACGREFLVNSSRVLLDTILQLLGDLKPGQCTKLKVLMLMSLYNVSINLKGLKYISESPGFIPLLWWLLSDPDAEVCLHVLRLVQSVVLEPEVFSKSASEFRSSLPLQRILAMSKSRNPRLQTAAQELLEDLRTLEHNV
The description is as above. Conditions: both partners purified.

The next data set has as its target T3, ARM domain of HSF2BP (Homo sapiens, UniProt O75031).
T3 construct: The armadillo domain of HSF2BP, from aa 122 to aa 334; 6xHis-TEV (N, cleaved yes); made in house; host or cells: E. coli BL21 DE3 Rosetta2
T3 sequence (O75031 122-334): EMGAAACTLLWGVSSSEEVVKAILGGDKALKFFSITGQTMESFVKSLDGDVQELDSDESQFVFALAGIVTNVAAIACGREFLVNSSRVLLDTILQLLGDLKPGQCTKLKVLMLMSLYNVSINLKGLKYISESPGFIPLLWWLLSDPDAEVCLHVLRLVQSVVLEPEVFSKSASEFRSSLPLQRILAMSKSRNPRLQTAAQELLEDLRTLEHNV
Nature of the data set: SEC-MALS of ARM free or bound to F15X. The data set is classed as physicochemical. On the procedure: Size-exclusion chromatography (SEC) coupled to MALS was used in order to measure the molecular masses of the complexes in solution. Therefore, HSF2BP and ARM proteins were loaded in the presence and absence of the BRCA2 fragment F15X on a Superdex 200 10/300 GL (GE Healthcare) using a HPLC Shimadzu system coupled to MALS/QELS/UV/RI (Wyatt Technology). The chromatography buffer was 25 mM Tris-HCl buffer, pH 7.5, 250 mM NaCl, 5 mM β-mercaptoethanol. The proteins were injected at 0.8–1 mg/ml in 100 μl. Data were analyzed using the ASTRA software; a calibration was performed with BSA as a standard.
On the technique in general: In gel filtration, larger molecules generally elute earlier.

A further data set deals with BRCA2 (Flag-F9). Nature of the data set: Co-immunoprecipitation of GFP-HSF2BP variants with Flag-BRCA2 F9. It counts as cell-based, human. The note with it: transient HEK293T / stable HeLa, anti-GFP beads, immunoblot.
Excerpt: as §1, §2

For data set [3], the target named is T4, Human full-length HSF2BP WT (human), O75031.
T4 chain: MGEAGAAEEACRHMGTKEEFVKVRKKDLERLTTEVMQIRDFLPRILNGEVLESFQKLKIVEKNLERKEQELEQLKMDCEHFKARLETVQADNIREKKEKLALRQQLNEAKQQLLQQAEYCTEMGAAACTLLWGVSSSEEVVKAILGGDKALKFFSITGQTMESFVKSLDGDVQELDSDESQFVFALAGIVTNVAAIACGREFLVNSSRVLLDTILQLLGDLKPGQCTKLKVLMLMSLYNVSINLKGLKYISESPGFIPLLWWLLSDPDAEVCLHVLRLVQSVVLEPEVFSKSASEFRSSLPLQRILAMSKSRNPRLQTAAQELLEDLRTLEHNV
Nature of the data set: ITC; HSF2BP or ARM in the cell at 10-20 uM, BRCA2 fragment in the syringe at 40-100 uM; 293 K; 25 mM Tris pH 7.5, 250 mM NaCl, 5 mM beta-mercaptoethanol; two replicates.

Several values for one entry are separate records, joined by “and”; a condition that tells them apart may be missing. Equal values may be shown once. Ends that are not written are not given here.

Turning to “F15: Flag-tagged BRCA2 fragment N2288-T2337 (NLLNEFDRIIENQEKSLKASKSTPDGTIKDRRLFMHHVSLEPITCVPFRT; also: Flag tag, end not given here)”, in the data set with GFP-HSF2BP, the “interaction with HSF2BP (co-precipitation)” value (from here on “interaction with HSF2BP”) was “minimal interaction region”.

B1: Human BRCA2 fragment F15X (N2291-Q2342) (domain or fragment, UniProt P51587 2291-2342, looked up)
chain: NEFDRIIENQEKSLKASKSTPDGTIKDRRLFMHHVSLEPITTVPFRTTKERQ
notes: BRCA2, human, residues 2291-2342 (methods: aa 2291 to aa 2343); T2332 in the construct; The methods give aa 2291 to aa 2343, results and legend N2291-Q2342; A selenomethionine-labelled form was used for the deposited crystal structure; also called BRCA2 F15X; BRCA2 peptide; source: E. coli BL21 DE3 Star, purified (HisTrap, TEV cleavage, SEC); not shown: GB1, C-terminal, cleaved; His6, C-terminal, …
Usually Kd stands for a measure of binding affinity in units of concentration. Higher therefore signals a looser complex. In general, stoichiometry N refers to the number of molecules, sites or subunits per partner or assembly. With B1, in data set [1], the dissociation constant Kd is 10 nM and 9.4 nM; the dH is -10.2 kcal/mol and -9.2 kcal/mol; the “stoichiometry N” value is 0.33 and 0.4.

B2: Human BRCA2 fragment F0 (S2213-Q2342, C2332T) (domain or fragment, UniProt P51587 2213-2342, looked up)
chain: STYSKDSENYFETEAVEIAKAFMEDDELTDSKLPSHATHSLFTCPENEEMVLSNSRIGKRRGEPLILVGEPSIKRNLLNEFDRIIENQEKSLKASKSTPDGTIKDRRLFMHHVSLEPITTVPFRTTKERQ
notes: BRCA2, human, residues 2213-2342 with C2332T; pET-22b fusion: BRCA2 fragment, TEV site, GB1, 6xHis; residues of the TEV site may remain at the C-terminus after cleavage (surmise); 15N- or 15N/13C-labelled for NMR; also called BRCA2-F0; source: E. coli BL21 DE3 Star, purified (HisTrap, TEV cleavage, SEC); not shown: GB1, C-terminal, cleaved; His6, C-terminal, cleaved
For the molecule B2, in data set [1], the Kd was 31 nM and 25 nM; the dH is -8.3 kcal/mol and -11.9 kcal/mol; the “stoichiometry N” value is 0.45 and 0.49. In data set [2], the Kd is 1.3 nM; the dH is -11 kcal/mol and -10.9 kcal/mol; the “stoichiometry N” value is 0.43 and 0.47.

B3: H3: HSF2BP fragment E122-V334, armadillo domain (protein)
chain: EMGAAACTLLWGVSSSEEVVKAILGGDKALKFFSITGQTMESFVKSLDGDVQELDSDESQFVFALAGIVTNVAAIACGREFLVNSSRVLLDTILQLLGDLKPGQCTKLKVLMLMSLYNVSINLKGLKYISESPGFIPLLWWLLSDPDAEVCLHVLRLVQSVVLEPEVFSKSASEFRSSLPLQRILAMSKSRNPRLQTAAQELLEDLRTLEHNV
modifications: left off: His6, end not stated, cleaved
notes: HSF2BP fragment E122-V334, armadillo domain
B3: the “oligomeric state of ARM” value in the data set with ARM domain of HSF2BP (SEC-MALS and SEC-SAXS) is “dimeric”. For the same molecule, the “molecular weight of species in solution” value with ARM domain of HSF2BP (SEC-MALS, Superdex 200 10/300 GL, 25 mM Tris-HCl pH 7.5, 250 mM NaCl, 5 mM β-mercaptoethanol) was determined as 48 kDa. Besides, the “binding to BRCA2 (co-precipitation)” value in the data set on BRCA2 (Flag-F9) is reported as “minimal interaction region”.

B4: S2309N: Flag-BRCA2-F9 variant (protein)
chain: GKRRGEPLILVGEPSIKRNLLNEFDRIIENQEKSLKASKNTPDGTIKDRRLFMHHVSLEPITCVPFRT
modifications: left off: Flag, end not stated, kept
notes: Flag-BRCA2-F9 variant
On to B4, for which the “interaction with HSF2BP” value was “either strongly decreased or abolished binding” in the data set on GFP-HSF2BP and “did not interact” in the data set on GFP-HSF2BP (listed as S2309).

B5: R2318Q: Flag-BRCA2-F9 variant (protein)
chain: GKRRGEPLILVGEPSIKRNLLNEFDRIIENQEKSLKASKSTPDGTIKDQRLFMHHVSLEPITCVPFRT
modifications: left off: Flag, end not stated, kept
notes: Flag-BRCA2-F9 variant
Take B5: the results for the “interaction with HSF2BP” value with GFP-HSF2BP and in the data set with GFP-HSF2BP (listed as R2318) were “either strongly decreased or abolished binding” and “did not interact”, respectively.

B6: L2304K: Flag-BRCA2-F9 variant (protein)
chain: GKRRGEPLILVGEPSIKRNLLNEFDRIIENQEKSKKASKSTPDGTIKDRRLFMHHVSLEPITCVPFRT
modifications: left off: Flag, end not stated, kept
notes: Flag-BRCA2-F9 variant
For the molecule B6, in the data set on GFP-HSF2BP, the “interaction with HSF2BP” value is listed as “either strongly decreased or abolished binding”.

B7: P2329L: Flag-BRCA2-F9 variant (protein)
chain: GKRRGEPLILVGEPSIKRNLLNEFDRIIENQEKSLKASKSTPDGTIKDRRLFMHHVSLELITCVPFRT
modifications: left off: Flag, end not stated, kept
notes: Flag-BRCA2-F9 variant
With B7, the “interaction with HSF2BP” value with GFP-HSF2BP is “either strongly decreased or abolished binding”; with GFP-HSF2BP (listed as P2329), “did not interact”.

For the molecule DGTIKDRRLFMHHVSLEPITTVPFRTTKERQ (modifications not checked) [BRCA2 peptide F15X∆12 (D2312-E2342)], in data set [3], the dissociation constant Kd was 2100 nM and 1500 nM; the dH is -1.8 kcal/mol and -1.7 kcal/mol; the stoichiometry N is 0.9 and 0.89.
